# Test results reported in US20050288225A1 (YEDA RESEARCH AND DEVELOPMENT, published 2005).
# Biological target: T1, HA-tagged B1 protein (Homo sapiens (Human), UniProt O43353 1-540)
# T1 construct: Expressed in transfected 293 cells for co-immunoprecipitation; also called HA-B1
# Assay: co-immunoprecipitation from transfected 293 cells: anti-FLAG IP, anti-HA western blot
# Experimental: Seven hours after transfection cells were washed and 18 hours later cells were lysed in a buffer containing 50 mM HEPES pH 7.5, 250 mM NaCl, 0.2% NP-40, 5 mM EDTA, 1 mM phenylmethylsulfonyl fluoride, 2.0 μg/ml aprotinin and 20 μg/ml leupeptin (lysis buffer). Immunoprecipitation was performed by incubation (2hours, 4° C.) of 1 ml aliquots of lysate with anti-FLAG epitope antibody (5 μg/aliquot) and with protein G-agarose beads (30 μl/aliquot). Immunoprecipitates were washed three times with lysis buffer and once with PBS, fractionated by 10% SDS-PAGE and transferred to a nitrocellulose membrane (Schleicher & Schuell, Dassel, Germany). Western blot analysis was performed with anti-HA epitope monoclonal antibodies applied at a dilution of 1:1000, and the ECL kit (Amersham, Buckinghamshire, England).
# T1 sequence (O43353 whole entry L79F): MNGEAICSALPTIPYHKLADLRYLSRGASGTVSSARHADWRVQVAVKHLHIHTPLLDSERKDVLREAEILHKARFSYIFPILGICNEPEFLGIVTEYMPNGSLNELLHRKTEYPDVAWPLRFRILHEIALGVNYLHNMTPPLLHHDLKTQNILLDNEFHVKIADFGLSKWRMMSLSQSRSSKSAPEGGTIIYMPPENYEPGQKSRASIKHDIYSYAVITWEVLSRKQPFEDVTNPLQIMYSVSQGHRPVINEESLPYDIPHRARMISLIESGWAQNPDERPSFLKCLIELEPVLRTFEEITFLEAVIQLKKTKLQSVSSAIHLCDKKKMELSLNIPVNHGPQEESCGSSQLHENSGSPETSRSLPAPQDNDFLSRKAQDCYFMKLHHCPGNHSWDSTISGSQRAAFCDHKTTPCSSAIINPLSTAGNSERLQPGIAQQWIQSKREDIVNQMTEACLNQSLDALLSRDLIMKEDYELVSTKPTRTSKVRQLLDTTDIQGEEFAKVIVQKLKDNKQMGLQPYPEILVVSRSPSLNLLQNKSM
binder,measurement,value
"Flag-tagged TRAF2 (other, UniProt Q12933 1-501, looked up, not shown: small tags and cut ends, Expressed in transfected 293 cells; also called FL-TRAF2) MAAASVTPPGSLELLQPGFSKTLLGTKLEAKYLCSACRNVLRRPFQAQCGHRYCSFCLASILSSGPQNCAACVHEGIYEEGISILESSSAFPDNAARREVESLPAVCPSDGCTWKGTLKEYESCHEGRCPLMLTECPACKGLVRLGEKERHLEHECPERSLSCRHCRAPCCGADVKAHHEVCPKFPLTCDGCGKKKIPREKFQDHVKTCGKCRVPCRFHAIGCLETVEGEKQQEHEVQWLREHLAMLLSSVLEAKPLLGDQSHAGSELLQRCESLEKKTATFENIVCVLNREVERVAMTAEACSRQHRLDQDKIEALSSKVQQLERSIGLKDLAMADLEQKVLEMEASTYDGVFIWKISDFARKRQEAVAGRIPAIFSPAFYTSRYGYKMCLRIYLNGDGTGRGTHLSLFFVVMKGPNDALLRWPFNQKVTLMLLDQNNREHVIDAFRPDVTSSSFQRPVNDMNIASGCPLFCPVSKMEAKNSYVRDDAIFIKAIVDLTGL",binding result,no binding
